Test results reported in PMC7725843, “Structural and biochemical analyses of an aminoglycoside 2′-N-acetyltransferase from Mycolicibacterium smegmatis” (Scientific Reports, 2020).

How the values were obtained:
Assay in all cases: purified protein
Assay type in all cases: biochemical, Mycolicibacterium smegmatis
[1] = test system: NC[C@H]1O[C@H](O[C@H]2[C@H](O)[C@@H](O[C@H]3O[C@H](CO)[C@@H](O)[C@H](N)[C@H]3O)[C@H](N)C[C@@H]2N)[C@H](N)C[C@@H]1O; settings: 300 μM acetyl-CoA, 50 mM MES pH 6.5, 200 μM DTNB, 25 °C
[2] = test system: CC(=O)SCCNC(=O)CCNC(=O)[C@H](O)C(C)(C)COP(=O)(O)OP(=O)(O)OC[C@H]1O[C@@H](n2cnc3c(N)ncnc32)[C@H](O)[C@@H]1OP(=O)(O)O; settings: aminoglycoside co-substrate not told, 50 mM MES pH 6.5, 200 μM DTNB, 25 °C
[3] = test system: NC[C@@H]1O[C@H](O[C@H]2[C@@H](O)[C@H](O[C@@H]3[C@@H](O)[C@H](N)C[C@H](N)[C@H]3O[C@H]3O[C@H](CO)[C@@H](O)[C@H](O)[C@H]3N)O[C@@H]2CO)[C@H](N)[C@@H](O)[C@@H]1O; settings: 300 μM acetyl-CoA, 50 mM MES pH 6.5, 200 μM DTNB, 25 °C
[4] = test system: NC[C@H]1O[C@H](O[C@H]2[C@H](O)[C@@H](O[C@H]3O[C@H](CO)[C@@H](O)[C@H](N)[C@H]3O)[C@H](N)C[C@@H]2N)[C@H](O)[C@@H](O)[C@@H]1O; settings: 300 μM acetyl-CoA, 50 mM MES pH 6.5, 200 μM DTNB, 25 °C

## AAC(2′)-Id (Mycolicibacterium smegmatis MC2 155)
[1]
  Km: (1.86 ± 0.10) × 10^2 μM
  kcat: 3.34 ± 0.1 s⁻¹
  kcat/Km: 18000 ± 1600 M⁻¹ s⁻¹
[2]
  kcat: 0.34 ± 0.03 s⁻¹
  kcat/Km: 5670 ± 1620 M⁻¹ s⁻¹
[3]
  Km: (1.04 ± 0.14) × 10^2 μM
  kcat: 1.08 ± 0.06 s⁻¹
  kcat/Km: 10400 ± 2100 M⁻¹ s⁻¹
[4]
  Km: (1.67 ± 0.84) × 10^2 μM
  kcat: 0.13 ± 0.03 s⁻¹
  kcat/Km: 817 ± 620 M⁻¹ s⁻¹
